{"source": "paper PMC11372557", "key": {"[1]": {"biological_target": "RbdA-PDE (RbdA 549-797), phosphodiesterase domain of the regulator of biofilm dispersal RbdA (Pseudomonas aeruginosa strain PAO1)", "assay": "SEC; apparent molecular weight on a calibrated size exclusion system; purified proteins in solution"}, "[2]": {"biological_target": "RbdA-DGC-PDE (RbdA 376-797), linked cyclase-phosphodiesterase double domain of RbdA (Pseudomonas aeruginosa strain PAO1)", "assay": "SEC; apparent molecular weight on a calibrated size exclusion system; purified proteins in solution"}}, "data": [{"substance": "RbdA-PDE (RbdA 549-797), phosphodiesterase domain of the regulator of biofilm dispersal RbdA (domain or fragment)", "values": [{"measurement": "stoichiometry N", "setting": "[1]", "result": 2}]}, {"substance": "RbdA-DGC-PDE (RbdA 376-797), linked cyclase-phosphodiesterase double domain of RbdA (domain or fragment)", "values": [{"measurement": "stoichiometry N", "setting": "[2]", "result": 2}]}]}
